For the experiment, the target named is Atto 488 labelled FaeG (Escherichia coli).

B1: F45 single-domain antibody (VHH)
VHH: QVQLQESGGGLVQPGGSLRLSCLVSGGTFSWYAMGWFRQAPGKEREFVATVSRGGGSSYYADSVKGRFTISRDNAKNTVYLQMNSLKPEDTAVYYCAAGRGAPSDTGRPDEYDYWGQGTQVTVSS
In turn, B1 had a Hydrodynamic radius (nm) of 3.02 nm.

B2: F45::(GGGGS)3::F45 homodivalent protein construct (VHH)
chain: QVQLQESGGGLVQPGGSLRLSCLVSGGTFSWYAMGWFRQAPGKEREFVATVSRGGGSSYYADSVKGRFTISRDNAKNTVYLQMNSLKPEDTAVYYCAAGRGAPSDTGRPDEYDYWGQGTQVTVSSGGGGSGGGGSGGGGSQVQLQESGGGLVQPGGSLRLSCLVSGGTFSWYAMGWFRQAPGKEREFVATVSRGGGSSYYADSVKGRFTISRDNAKNTVYLQMNSLKPEDTAVYYCAAGRGAPSDTGRPDEYDYWGQGTQVTVSS
B2: the Hydrodynamic radius (nm) amounted to 2.97 nm.

For the origin of these results see US20220119505A1.
